# Experimental data: the nanobody polyreactivity screen of Harvey et al. (2022)
# Assay: yeast display, Sf9 membrane polyspecificity reagent, FACS + sequencing; frameworks hold sequencing errors
# How it was run: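 A nanobody's polyreactivity label depends on the gate it was sorted from. Yeast display cells were stained with 10% biotinylated, detergent-solubilized Sf9 membrane reagent for 1 hour at 4 °C, enriched on streptavidin microbeads and sorted by FACS. The low and high (top ~1%) gates were set on anti-HA fluorescence for expression and streptavidin fluorescence for reagent binding.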
row,Sequence,polyreactivity (PSR sort gate)
1,QVQLVESGGGLVQAGGSLRLSCAASGSTFYGYGMGWYREAPGKERELVAAITGSGDTTYYADSVKGRFTISRDNAKNTVYLQMNSLKREDTAVYYCNAGWHAEYDYWGQGTQVTVSS,low polyreactivity
2,QVQLVESGGGLVQAGGSLRLSCAASGSTFYHNVMGWSRQAPGKERELVASIDTGDSTNYADSVKGRFTISRDNAKNTVYLQMNSLKPEDTAVYYCNADSYPALNKRGYDYWGQGTQVTVSS,low polyreactivity
3,QVQLVESGGGLVQAGGSLRLSCAASGSTFYINAMGWYRPAPGKERELVAAITDSGGSTYYADSVKGRFTISRDNAKNTVSLQMNSLKPEDTAVYYCATDGYDPRGYDYWGQGTQVTVSS,high polyreactivity
4,QVQLVESGGGLVQAGGSLRLSCAASGSTFYINAMGWYRQAPGKERELVAAISWSGGSTYYADSVKGRFTISRDNAKNTVYLQMNSMKPEDTAVYYCAADWYLGWSLDYDYWGQGTQVTVSS,low polyreactivity
5,QVQLVESGGGLVQAGGSLRLSCAASGSTFYIYAMGWYRQAPGKERELVAAINWRTGSTYYADSVKGRFTISRDNAKNTVYLQMNSLKPEDTAVYYCNAYTKHWSYWGQGTQVTVSS,high polyreactivity
6,QVQLVESGGGLVQAGGSLRLSCAASGSTFYIYAMGWYRQAPGKERELVAAITEGGGITYYADSVKGRFTISRDNAKNTVYLQMISLKPEDTAVYYCADVWGYYVLPYDYWGQGTQVTVSS,low polyreactivity
7,QVQLVESGGGLVQAGGSLRLSCAASGSTFYIYAMGWYRQAPGKERELVAAITWSGGSTYYADSVKGRFTISRDNAKNTVYLQMNSLKPEDTAVYYCAAQVWYSKSPTVDVYFDYDYWGQGTQVTVSS,low polyreactivity
8,QVQLVESGGGLVQAGGSLRLSCAASGSTFYKYAMGWYRQAPGKERELVASISRSGGSTSYADSVKGRFTISRDNAKNTVYLHMNSLIPEDTAVYYCAATWRQHPGSMGYWGQGTQVTVSS,high polyreactivity
9,QVQLVESGGGLVQAGGSLRLSCAASGSTFYKYAMGWYRQAPGKERELVASITWSGTSTYYADSVKGRFTISRDNAKNTVYLQMNSLKPEDTAVYYCNAGLEYYYWGYTWEFDYWGQGTQVTVSS,low polyreactivity
10,QVQLVESGGGLVQAGGSLRLSCAASGSTFYKYAMGWYRQAPGKERELVAVINYRGGSTYYADSVKGRFTISRDNAKNTVYLQMNSLKPEDTAVYYCAARQYWQNRRQYYYWGQGTQVTVSS,high polyreactivity
11,QVQLVESGGGLVQAGGSLRLSCAASGSTFYKYDMGWYRQAPGKEREFVAVISWSGGNTYYADSVKGRFTISRDNAKNNVYLQMNSLKPEDTAVYYCAADNYPDEYDYWGQGTQVTVSS,low polyreactivity
12,QVQLVESGGGLVQAGGSLRLSCAASGSTFYKYGMGWYRQAPGKERELVAAISGSGDSTYYADSVKGRFTISRDNAKNTVYLQMNSLKPEDTAVYYCNAGPWWYLHEYDYWGQGTQVTVSS,low polyreactivity
13,QVQLVESGGGLVQAGGSLRLSCAASGSTFYLNAKGWYRQAPGKERELVAASSSSGGSTYYADSVKGRFTISRDNAKNTVYLQMNSLKPEDTAVYYCACSCVPAVSVYGGDYWGQGTQVTVSS,low polyreactivity
14,QVQLVESGGGLVQAGGSLRLSCAASGSTFYLNAMGWYRQAPWKERELVASITWRGGSTYYADSVKGRFTISRDNAKNTVYLQMNSLKPEDTGVYYCAADATRLRTRYKRDYWGQGSQVTVSS,high polyreactivity
15,QVQLVESGGGLVQAGGSLRLSCAASGSTFYLNDMGWYRQAPGKERELVAAIDWSGGSTYYAVSVKGRFTISRDNAKNTVYLQMNSLKPEDTAVYYCAARLVYEWRRLDYFIAWDYWGQGTQVTVSS,low polyreactivity
16,QVQLVESGGGLVQAGGSLRLSCAASGSTFYLYAMGWYRPAPGKERELVASITSGDGSTYYADSVKGRFTISRDNAKNTVYLQMNSLKPEDTAVYYCNAVLEGWFYQYDYWGQGTQVTVSS,low polyreactivity
17,QVQLVESGGGLVQAGGSLRLSCAASGSTFYLYAMGWYRQAPGKERELVASITSGDGSTYYADSVKGRFTISRDNAKNTVYLQMNSLKPEDTAVYYCNAVLEGWFYQYDYWGQGTQVTVSS,low polyreactivity
18,QVQLVESGGGLVQAGGSLRLSCAASGSTFYLYAMGWYRQAPWKEREFVARITWSGGSTYYADSVKGRFTISRDNAKNTVYLQMNSLKPEDTAVYYCNATKTGPATVRYYYWGQGTQVTVSS,high polyreactivity
19,QVQLVESGGGLVQAGGSLRLSCAASGSTFYLYDMGWYRQAPGKEREMVAAISWSSGSTYYADSVKGRFTISRDNAKNTVYLQMNSLKPEETAVYYCAAGPSDTEYWLFDYWGQGTQVTVSS,high polyreactivity
20,QVQLVESGGGLVQAGGSLRLSCAASGSTFYNNAMGWYRQAPGKERELVAAITRTGGRTYYADSVKGRFTISRDNAKNTVYLQMNSLKPEDTAVYYCAALRYGQGSISAFDYWGQGTQVTVSS,high polyreactivity
21,QVQLVESGGGLVQAGGSLRLSCAASGSTFYNYALGWYRQAPGKERELVAAIRRSGGSTYYADSVKGRFTISRDNAKNTVYFQMNSLKPEDTAVYYCAASYYTRGYWGQGTQVTVSS,high polyreactivity
22,QVQLVESGGGLVQAGGSLRLSCAASGSTFYPKAKAWNRQAPGKERELVAGISSGGGTYYADSVKGRFTISRDNAKNTVYLQMNSLKREDTAVYYCNAYFLSSSLDYWGQGTQVTVSS,low polyreactivity

row,Sequence,polyreactivity (PSR sort gate)
1,QVQLVESGGGLVQAGGSLRLSCAASGSTFYPNAMGWSRQAPGKERELVAAISRGTRTKYADSVKGRFTISRDNAKNTVYLQMKSLKPEDTAVYYCAADTGTGLDWGQGTQVTVSS,high polyreactivity
2,QVQLVESGGGLVQAGGSLRLSCAASGSTFYPNAMGWYRQAPGKERELVARISGRGGRTYYADSVKGRFTISRDNAKNTVYLLMNSLKPEDTAVYYCSKDPSSDLDYDYWGQGTQVTVSS,low polyreactivity
3,QVQLVESGGGLVQAGGSLRLSCAASGSTFYPNPMGWYRQAPGKERELVAAISQRGGRTYYADSVKGRFTISRDNAKNTVYLQMNSLKPEDTAVYYCAATYQGYNSWYSFGYWGQGTQVTVSS,high polyreactivity
4,QVQLVESGGGLVQAGGSLRLSCAASGSTFYPYAMGWYRQAPGKERELVAAISSRDGRTYYADSVKGRFTISRDNAKNTVYLQMNSLKPEDTAVYYCAAVRALRKVRDYYYWGQGTQVTVSS,high polyreactivity
5,QVQLVESGGGLVQAGGSLRLSCAASGSTFYPYAMGWYRQAPGKEWEFVADITKRGGSTYYADSVKGRFTISRDNAKNTVYLQMNSLKPEDTAVYYCNAYNYDLVYPQYDYWGQGTQVTVSS,low polyreactivity
6,QVQLVESGGGLVQAGGSLRLSCAASGSTFYQNAMGWYRQAPGKERELVAAISRSGGGTYYADSVKGRFTISRDNAKNTVYLQMNSLKPEDTAVYYCAVRPTYNSWTRSTSRYYYWGQGTQVTVSS,high polyreactivity
7,QVQLVESGGGLVQAGGSLRLSCAASGSTFYQNAMGWYRQAPGKERELVAAISSRGGSTYYADSVKGRFTISRDNAKNTVYLQMNSLKPEDTAVYYCNTGRGSEMDYWGQGTQVTVSS,high polyreactivity
8,QVQLVESGGGLVQAGGSLRLSCAASGSTFYQNAMGWYRQAPGKERELVAAISSSGRTYYADSVKGRFTISRDNAKNTVYLQMNSLKPEDTAVYYCAVGAYGSLYSIRVAYGSMDYWGQGTQVTVSS,high polyreactivity
9,QVQLVESGGGLVQAGGSLRLSCAASGSTFYQYAMGWYRQAPGKERELVAAISKSGGSTYYADSVKGRFTISRDYSKNTVYLQMNSLKPDDTSVYYCATRWIKGRKMDYWGQGTQVTVSS,high polyreactivity
10,QVQLVESGGGLVQAGGSLRLSCAASGSTFYQYVMGWYRQAPGKERELVAAISGSGGSTYYADSVKGRFTISRDNAKTTVYLQMNSLKPEDTAVYYCAAVGRSKRDGYWGQGTQVTVSS,high polyreactivity
11,QVQLVESGGGLVQAGGSLRLSCAASGSTFYRNAMGWYRQAPGKEREFVATINRGGSTYYADSVKGRFTISRDNAKNTVYLQMNSLKPEDTAVYYCNAKYKQRHGYSAVTSYATYDYWGQGTQVTVSS,high polyreactivity
12,QVQLVESGGGLVQAGGSLRLSCAASGSTFYRNAMGWYRQAPGKERELVATITFNGGSTYYADSVKGRFTISRDNAKNTVYLQMNSLKPEDTAVYYCAKSHAIYYWWDESWGQGTQVTVSS,low polyreactivity
13,QVQLVESGGGLVQAGGSLRLSCAASGSTFYRNGMGWYRQAPGKERELVAGIDRSGGSTYYADSVKGRFTISRDNAKNTVYLQMNSLKPEDTAVYYCAAQNGYYPQHDYWGQGTQVTVSS,high polyreactivity
14,QVQLVESGGGLVQAGGSLRLSCAASGSTFYRYAMGWYRQAPGKEREFVAAITGSGGRTYYADSVKGRFTISRDNAKNTVYLQMNSLKPEDTAVYYCAARYYYFYQISYRYDYWGQGTQVTVSS,high polyreactivity
15,QVQLVESGGGLVQAGGSLRLSCAASGSTFYRYAMGWYRQAPGKERELVAAIRGSGGRTYYADSVKGRFTISRDNAKNTVYLQMNSLKPEDTAVYYCAAYRGVSQKGDYWGEGTQVTVSS,high polyreactivity
16,QVQLVESGGGLVQAGGSLRLSCAASGSTFYRYAMGWYRQAPGKERELVAAISTRSGSTYYADSVKGRFTISRDNAKNTVYLQMNSLKPEDTAVYYCAADGHKKTARKYYYWGQGTQVTVSS,low polyreactivity
17,QVQLVESGGGLVQAGGSLRLSCAASGSTFYRYAMGWYRQAPGKERELVAAITSAGSTNYADSVKGRFTISRDNGNNTVYLQMYSLKPVDTAVYYCAADHGRPYFSYDYWGQGSQVTVSS,low polyreactivity
18,QVQLVESGGGLVQAGGSLRLSCAASGSTFYRYAMGWYRQAPGKERELVATISWTDGRTNYADSVKGRFTISRDNAKNPVYLQMNSLKPEDTAVYDCAARRYRRWYDYWGQGTQVTVSS,high polyreactivity
19,QVQLVESGGGLVQAGGSLRLSCAASGSTFYRYVMGWYRQAPGKERELVAAISKSDGSTYYADSVKGRFTISRDNAKNTVYLQMNSLIPEDTAVYYCAADGSKWDWWEYEYWGQGTQVTVSS,high polyreactivity
20,QVQLVESGGGLVQAGGSLRLSCAASGSTFYSNAMGWYRQAPGKERELVAAISSTGSSTYYADSVKGRFTISRDNAKNTVYLQMNSLKPEDTAVYYCATDYYQSYWPATYDYWGQGTQVTVSS,low polyreactivity
21,QVQLVESGGGLVQAGGSLRLSCAASGSTFYSNAMGWYRQAPGKERELVATISFRGGRTYYADSVKGRFTISRDNAMNTVYLQMNSLKPEDTAVYYCNAEVSGYPYTYGYRGQGTQVTVSS,low polyreactivity
